Results: IntAct's records for PubMed 18423204

B1: Catenin beta-1 (Mus musculus), Q02248 (parent)
chain: MATQADLMELDMAMEPDRKAAVSHWQQQSYLDSGIHSGATTTAPSLSGKGNPEEEDVDTSQVLYEWEQGFSQSFTQEQVADIDGQYAMTRAQRVRAAMFPETLDEGMQIPSTQFDAAHPTNVQRLAEPSQMLKHAVVNLINYQDDAELATRAIPELTKLLNDEDQVVVNKAAVMVHQLSKKEASRHAIMRSPQMVSAIVRTMQNTNDVETARCTAGTLHNLSHHREGLLAIFKSGGIPALVKMLGSPVDSVLFYAITTLHNLLLHQEGAKMAVRLAGGLQKMVALLNKTNVKFLAITTDCLQILAYGNQESKLIILASGGPQALVNIMRTYTYEKLLWTTSRVLKVLSVCSSNKPAIVEAGGMQALGLHLTDPSQRLVQNCLWTLRNLSDAATKQEGMEGLLGTLVQLLGSDDINVVTCAAGILSNLTCNNYKNKMMVCQVGGIEALVRTVLRAGDREDITEPAICALRHLTSRHQEAEMAQNAVRLHYGLPVVVKLLHPPSHWPLIKATVGLIRNLALCPANHAPLREQGAIPRLVQLLVRAHQDTQRRTSMGGTQQQFVEGVRMEEIVEGCTGALHILARDVHNRIVIRGLNTIPLFVQLLYSPIENIQRVAAGVLCELAQDKEAAEAIEAEGATAPLTELLHSRNEGVATYAAAVLFRMSEDKPQDYKKRLSVELTSSLFRTEPMAWNETADLGLDIGAQGEALGYRQDDPSYRSFHSGGYGQDALGMDPMMEHEMGGHHPGADYPVDGLPDLGHAQDLMDGLPPGDSNQLAWFDTDL

Variants of: B1
Conditions: with MAPK9, P45984-1

effect of a mutation on the interaction	Variant
decreasing interaction	S605A
disrupting interaction	S191A;S246A;S605A
decreasing interaction	S246A
disrupting interaction	S191A
